Measured values: article PMC2888445 (The Journal of Biological Chemistry, 2010)

Biological target: T1, GST-AC8 1–77 (rat, UniProt P40146 1-77)
T1 sequence (looked up): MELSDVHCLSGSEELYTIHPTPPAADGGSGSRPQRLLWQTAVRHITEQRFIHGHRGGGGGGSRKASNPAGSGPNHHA
Assay: pull-down

fold interaction against GST-AC8 73–179 (densitometry, HA band relative to GST): 1.6 fold
B1: AKAP150-HA (natural protein, rat, UniProt P24587 1-714, looked up)
chain: METSVSEIQIETKDEKRPEAASPQKERQERKTATLCFKRRKKVNKKKAKAGSKTAEETEKHAPEAGGSGQRQPAGAWASIKRLVTHRKPSESAEKQKPSEAEMQPEDGALPKKKTKSKLKIPCIRFSRGAKRSRPSKLTEDSGYVRVQGEADDLEIKAQIQPDEQATQAKSTQGLQEDVIVRDGKEIQESHISNNVISGEHVIGIELELEKESSALRMRTPGSEKEAKVILVKQGVQVQEASVLENSAADSPQPVTSTAPLSPATTHQLGLEEPSDSIRESAPSGKDDGRRKTAAEEKKSGETALGQAEEASSVSQADKSVLSQAEEATVGHTEEATVIQAQSQAKEGKLSQAEEATVAQAKETVLSQAEEVKLSQIEEPAISQAKKATVGQAKEAYVSQAEEAIVGHTEKATMGQAEEATVGHIEKTTVGQAEEATVGQAEEATVGQAEEATVGQAEEATVGQAEEATVGQAGEATVSHIEKTTVGQAEEAIVGQAEEATVGQAEEATVGQAEEATVGQAEEATVDQAEEATVGQAEEATVGQAGEAAVGQAEEAIVAQAEEATVGQAGEATVGQAEKATVGQAEEPIVGQAEETVLRHASDLKVNGVDAEKPRSEESKRMEPIAIIITDTEISEFDVKKSKNVPKQFLISMENEQVGVFANDSDFEGRTSEQYETLLIETASSLVKNAIELSVEQLVNEMVSEDNQINTLFQ
